From US20120328625A1

Key:
[1] = molecular target: full length human Shh expressed on the cell surface (human) (UniProt Q15465); test: cell-based or functional assay
[2] = molecular target: Shh-N in conditioned medium (human) (UniProt Q15465); test: cell-based or functional assay

% Inhibition of Gli1 reporter, Co-Culture N = 1, 4 µg/ml [1]: 124%
% Inhibition of Gli1 reporter, Co-Culture N = 2, 4 µg/ml [1]: 96%
% Inhibition of Gli1 reporter, Co-Culture N = 3, 4 µg/ml [1]: 121%
% Inhibition of Gli1 reporter, Conditioned Media N = 1, 4 µg/ml [2]: 103%
% Inhibition of Gli1 reporter, Conditioned Media N = 2, 4 µg/ml [2]: 112%
B1: rmHIP (protein, UniProt Q7TN16 18-678, looked up)
chain: FFEGDAKFGERNEGSGARRRRCLNGNPPKRLKRRDRRVMSQLELLSGGEILCGGFYPRVSCCLQSDSPGLGRLENKIFSATNNSECSRLLEEIQCAPCSPHSQSLFYTPERDVLDGDLALPLLCKDYCKEFFYTCRGHIPGLLQTTADEFCFYYARKDAGLCFPDFPRKQVRGPASNYLGQMEDYEKVGGISRKHKHNCLCVQEVMSGLRQPVSAVHSGDGSHRLFILEKEGYVKILTPEGELFKEPYLDIHKLVQSGIKGGDERGLLSLAFHPNYKKNGKLYVSYTTNQERWAIGPHDHILRVVEYTVSRKNPHQVDVRTARVFLEVAELHRKHLGGQLLFGPDGFLYIILGDGMITLDDMEEMDGLSDFTGSVLRLDVDTDMCNVPYSIPRSNPHFNSTNQPPEVFAHGLHDPGRCAVDRHPTDININLTILCSDSNGKNRSSARILQIIKGRDYESEPSLLEFKPFSNGPLVGGFVYRGCQSERLYGSYVFGDRNGNFLTLQQSPVTKQWQEKPLCLGASSSCRGYFSGHILGFGEDELGEVYILSSSKSMTQTHNGKLYKIVDPKRPLMPEECRVTVQPAQPLTSDCSRLCRNGYYTPTGKCCCSPGWEGDFCRIAKCEPACRHGGVCVRPNKCLCKKGYLGPQCEQVDRNVRRVTR
